From PMC8928221, “Structure and Function Insight of the α-Glucosidase QsGH13 From Qipengyuania seohaensis sp. SW-135” (Frontiers in Microbiology, 2022) come the findings set out here.

In one data set the target is T1, QsGH13 (Qipengyuania seohaensis, UniProt A0A8X6EH34).
T1 construct: N-terminal His6-SUMO tag cut off with Ulp1; expressed in E. coli BL21(DE3) from pSMT3; dimer; primers encode N-terminus MSGKLP and C-terminus ILETDT (translated from primers)
Nature of the data set: residual activity, p-nitrophenol release, absorbance […] nm. It is filed as biochemical. The following applies: product tolerance test, 2 M glucose, substrate pNPαGlu, 20 mM Gly-NaOH pH 10.0, 45 °C.

Data set [1] addresses α-glucosidase QsGH13 from Qipengyuania seohaensis sp. SW-135 (Qipengyuania seohaensis sp. SW-135). Nature of the data set: crystal structure; QsGH13 at 10 mg/ml, hanging drop vapour diffusion at 4°C, 0.1 M Tris-HCl pH 8.5, 0.2 M NaCl, 20% PEG 3,350; space group P212121, two monomers per asymmetric unit.
Substrate in the data set “purified protein”: O=[N+]([O-])c1ccc(O[C@H]2O[C@H](CO)[C@@H](O)[C@H](O)[C@H]2O)cc1
Nature of the data set: purified protein. The following applies: pH 10.0 (20 mM Gly-NaOH), 45 °C, 0.025-2.0 mM substrate.

Consider `OC[C@H]1OC(O)[C@H](O)[C@@H](O)[C@@H]1O` (stereo partly drawn) [glucose], for which the “% activity retained at 2 M” value at QsGH13 worked out at 30%.
As for “α-glucosidase QsGH13 from Qipengyuania seohaensis sp. SW-135 (enzyme)”, the stoichiometry N in data set [1] stood at 2.

B1: QsGH13 (Qipengyuania seohaensis) (protein)
chain: MSGKLPWWKGAVIYQIYPRSFMDSNGDGIGDLPGIAQRLPHIAELGADAIWISPFFKSPMKDFGYDVSDYCDVDPIFGTLEDFDAVIARSHELGLKVLIDQVYSHTSDDHEWFAESRSNRDNPKAEWYVWADAKPDGSPPSNWQSVFGGPAWTWDARRGQYYLHNFLSSQPQLNLHNREAQQAVLDVMRFWLERGVDGFRIDALNFAMHDPQLRDNPPAPPTDKQRTRPFDFQLKTYNQSHADIPAFIERIRALTDEFDGIFTVAEVGGDDAVREMKAFTEGETHLNSAYGFNFLYAEALTPQLVCSALAEWPEEPDLGWPSWAFENHDAPRALSRWCTPEDRQAFARLKTLLLMSLRGNAILYYGEELGLTQVDIPFDQLHDPEAIANWPLTLSRDGARTPMPWDDSECAGFGSTAPWLPVGDDNRPRSVAAQLGDANSLLKFTRQAIALRKANPALHHGHVVECNHDGDLLELVREAGGQRLRCRFNLGSKPVECDDCEGRTLLAINGAEPTALPPFAAIILETDT
As for B1, the Km in the data set “purified protein” was found to be 295.2 ± 32.2 µM.
